Test results: PMC11601596

Assays:
[1] = target: Citrobacter sp. RHBSTW-00271 BubCD (JAB/JAMM family peptidase-E1 fusion), wild type (Citrobacter sp. RHBSTW-00271); test: crystal structure
[2] = target: Citrobacter sp. RHBSTW-00271 BubCD D104A peptidase domain mutant (Citrobacter sp. RHBSTW-00271); test: crystal structure

| stoichiometry N [1] | stoichiometry N [2] | Substance |
| --- | --- | --- |
| 2 |  | Citrobacter sp. RHBSTW-00271 BubCD (JAB/JAMM family peptidase-E1 fusion), wild type (enzyme) |
|  | 2 | Citrobacter sp. RHBSTW-00271 BubCD D104A peptidase domain mutant (enzyme) |
